The source of these data is paper PMC11685456, “Structural insights into GrpEL1-mediated nucleotide and substrate release of human mitochondrial Hsp70” (Nature Communications, 2024).

Data set [1] deals with T1, human mortalin R126W (mitochondrial Hsp70, HSPA9), without its mitochondrial targeting sequence (human, UniProt P38646 47-679, R126W).
T1 construct: mortalin (mitochondrial Hsp70, HSPA9), human; printed mass 70.2 kDa; R126W is associated with EVEN-PLUS syndrome; residues 46-639 were modelled in the cryo-EM map; No tag removal is described; also called Hsmortalin_(R126W); mtHsp70; source: E. coli LOBSTR, co-expressed with HsHep1, purified (HisTrap, HiTrap Q, Superdex 200)
T1 sequence (P38646 47-679 R126W): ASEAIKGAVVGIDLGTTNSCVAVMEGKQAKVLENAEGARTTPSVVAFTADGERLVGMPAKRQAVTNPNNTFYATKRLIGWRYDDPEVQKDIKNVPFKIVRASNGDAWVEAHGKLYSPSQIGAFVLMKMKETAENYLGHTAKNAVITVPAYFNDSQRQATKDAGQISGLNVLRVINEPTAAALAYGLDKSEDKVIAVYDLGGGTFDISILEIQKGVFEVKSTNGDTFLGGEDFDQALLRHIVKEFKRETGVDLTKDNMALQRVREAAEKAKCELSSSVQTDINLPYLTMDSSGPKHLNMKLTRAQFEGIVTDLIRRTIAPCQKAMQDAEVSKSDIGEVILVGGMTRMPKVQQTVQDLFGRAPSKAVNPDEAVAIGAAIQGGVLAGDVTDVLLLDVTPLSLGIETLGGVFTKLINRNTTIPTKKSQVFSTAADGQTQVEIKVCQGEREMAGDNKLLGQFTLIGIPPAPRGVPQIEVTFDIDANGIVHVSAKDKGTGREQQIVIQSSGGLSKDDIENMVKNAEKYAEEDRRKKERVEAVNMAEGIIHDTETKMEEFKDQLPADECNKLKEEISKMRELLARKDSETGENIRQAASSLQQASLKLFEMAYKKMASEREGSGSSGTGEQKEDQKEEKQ
The data set can be described thus: SEC-MALS; the mortalin_(R126W)-GrpEL1 complex; 152.5 kDa species. The note with it: both partners purified. (In general: SEC sorts molecules by how far they enter the pores of the column.)

Data set [2] deals with the molecule itself. Put plainly: cryo-EM structure; high molecular weight SEC peak concentrated and vitrified on UltraAuFoil grids; Titan Krios G4, 300 keV; nucleotide-free complexes.
In data set [3] the target is T1, human mortalin R126W (mitochondrial …). Put plainly: SEC; purified mortalin (20 uM), GrpEL1 (40 uM) and Pam16/Pam18 chimera (12 uM) incubated 1 h at room temperature, then Superdex 200 Increase 10/300 GL in 20 mM Tris pH 8, 150 mM KCl, 0.5 mM TCEP; fractions seen by SDS-PAGE. The note with it: both partners purified.

B1: human GrpEL1 wild type, without its mitochondrial targeting sequence (natural protein, UniProt Q9HAV7 28-217, looked up)
chain: CTATKQKNSGQNLEEDMGQSEQKADPPATEKTLLEEKVKLEEQLKETVEKYKRALADTENLRQRSQKLVEEAKLYGIQAFCKDLLEVADVLEKATQCVPKEEIKDDNPHLKNLYEGLVMTEVQIQKVFTKHGLLKLNPVGAKFDPYEHEALFHTPVEGKEPGTVALVSKVGYKLHGRTLRPALVGVVKEA
notes: GrpEL1, human mitochondrial nucleotide exchange factor; printed mass 25.5 kDa a protomer; Homodimer; no tag removal is described; also called GrpEL1WT; HsGrpEL1; source: E. coli LOBSTR, purified (Ni Sepharose, Strep-Tactin, Superdex 200)
In the case of B1, the “stoichiometry N” value in data set [1] came out at 2 GrpEL1 per mortalin; in data set [2], 2.

B2: human GrpEL1 Y173A, without its mitochondrial targeting sequence (natural protein, UniProt Q9HAV7 28-217, looked up)
chain: CTATKQKNSGQNLEEDMGQSEQKADPPATEKTLLEEKVKLEEQLKETVEKYKRALADTENLRQRSQKLVEEAKLYGIQAFCKDLLEVADVLEKATQCVPKEEIKDDNPHLKNLYEGLVMTEVQIQKVFTKHGLLKLNPVGAKFDPAEHEALFHTPVEGKEPGTVALVSKVGYKLHGRTLRPALVGVVKEA
notes: GrpEL1, human; Two protomers (GrpEL1-A and GrpEL1-B) were modelled in the Y173A structures; also called HsGrpEL1_(Y173A); source: E. coli LOBSTR, purified as GrpEL1WT (Ni Sepharose, Strep-Tactin, Superdex 200)
On to B2, for which the binding result in data set [3] and in data set [2] was “binds” each time.

The term stoichiometry N denotes the number of molecules, sites or subunits per partner or assembly.
